# Where a chain is given by its changes, count along the chain named. In names and notes the source's numbering stands.
# T1: REF6 ZnF1-4 WT (Arabidopsis thaliana, UniProt Q9STM3 1223-1360)
# T1 sequence: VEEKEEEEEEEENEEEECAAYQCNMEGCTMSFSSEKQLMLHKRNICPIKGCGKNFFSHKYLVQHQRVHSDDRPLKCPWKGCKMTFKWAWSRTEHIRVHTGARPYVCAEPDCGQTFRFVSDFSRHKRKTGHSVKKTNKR
# T2: REF6 N1276F (Arabidopsis thaliana, UniProt Q9STM3 1223-1360, N1276F)
# T2 sequence: T1 sequence with N54F
# B1: CUC1-2 (dsDNA)
# DNA 1: AGACTCTGTTTCAGA
# DNA 2: TCTGAAACAGAGTCT
# B2: m12 (G9A) (dsDNA)
# DNA 1: CTTTCTCTATTTTGTC
# DNA 2: GGACAAAATAGAGAAA
# B3: CUC2-3 (dsDNA)
# DNA 1: TAGCTCTGATAAAAT
# DNA 2: ATTTTATCAGAGCTA
# B4: CUC2-2 (dsDNA)
# DNA 1: TCTCTCTGTCTTTTC
# DNA 2: GAAAAGACAGAGAGA
# B5: m5-m9'C (dsDNA)
# DNA 1: CTTTCTCTGTTTTGTC
# DNA 2: GGACAAAACAGAGAAA
# modifications: methylcytosine at position 9 of strand 2 (9'C)
# B6: REF6 (residues 1223–1360) (domain or fragment, Arabidopsis thaliana, UniProt Q9STM3 1223-1360, looked up)
# chain: T1 sequence
# notes: The fusion tag was cleaved with TEV protease 'when necessary'
# B7: CUC2-4 (dsDNA)
# DNA 1: TCCCTCTGTGCACGC
# DNA 2: GCGTGCACAGAGGGA
# B8: CUC1-4 (dsDNA)
# DNA 1: TTACTCTGTTTGTAA
# DNA 2: TTACAAACAGAGTAA
# B9: CUC1-1 (dsDNA)
# DNA 1: TTCCTCTGTTCTTAT
# DNA 2: ATAAGAACAGAGGAA
# B10: CUC1-5 (dsDNA)
# DNA 1: TTTCTCTGCTCAAAT
# DNA 2: ATTTGAGCAGAGAAA
# B11: CUC1-6 (dsDNA)
# DNA 1: TTGCTCTGTTCGTTC
# DNA 2: GAACGAACAGAGCAA
# B12: CUC2-1 (dsDNA)
# DNA 1: TTGCTCTGTTAGTTC
# DNA 2: GAACTAACAGAGCAA
# B13: CUC1-3 (dsDNA)
# DNA 1: GGACTCTGTTTTAGA
# DNA 2: TCTAAAACAGAGTCC
# B14: REF6 fragment 1175–1360 (domain or fragment, Arabidopsis thaliana, UniProt Q9STM3 1175-1360, looked up)
# chain: DSYMEGPSTRLRVRHQKPSRGSLETKPKKIGKKRSGNASFSRVATEKDVEEKEEEEEEEENEEEECAAYQCNMEGCTMSFSSEKQLMLHKRNICPIKGCGKNFFSHKYLVQHQRVHSDDRPLKCPWKGCKMTFKWAWSRTEHIRVHTGARPYVCAEPDCGQTFRFVSDFSRHKRKTGHSVKKTNKR
# notes: source: E. coli BL21 (DE3), purified
# B15: CUC1-3+4 (dsDNA)
# DNA 1: TCTAAAACAGAGTCCTCCTTACTCTGTTTGTAA
# DNA 2: TTACAAACAGAGTAAGGAGGACTCTGTTTTAGA
# B16: REF6 fragment 1139–1360 (domain or fragment, Arabidopsis thaliana, UniProt Q9STM3 1139-1360, looked up)
# chain: RSTAKRIAKTKTVQSSRDTKGRFLQEFASGKKNEELDSYMEGPSTRLRVRHQKPSRGSLETKPKKIGKKRSGNASFSRVATEKDVEEKEEEEEEEENEEEECAAYQCNMEGCTMSFSSEKQLMLHKRNICPIKGCGKNFFSHKYLVQHQRVHSDDRPLKCPWKGCKMTFKWAWSRTEHIRVHTGARPYVCAEPDCGQTFRFVSDFSRHKRKTGHSVKKTNKR
# notes: as for B14
# Key:
# [1] = target: T1, REF6 ZnF1-4 WT; assay: EMSA; MST: 20 mM HEPES pH 7.3, 150 mM NaCl, 0.2 mM TCEP, 0.5% CA-630, 25 C; EMSA: 30 uM protein, 10 uM dsDNA, 20 mM Tris pH 8.0, 100 mM NaCl, 2.5 mM MgCl2, 0.1% CA-630, 10% glycerol, 1 uM ZnSO4, 1 mM DTT, 4 C; settings: protein: recombinant, tags: His6-MBP or GST tag, TEV-cleavable (cleaved when necessary)
# [2] = target: T1, REF6 ZnF1-4 WT; assay: MST; MST: 20 mM HEPES pH 7.3, 150 mM NaCl, 0.2 mM TCEP, 0.5% CA-630, 25 C; EMSA: 30 uM protein, 10 uM dsDNA, 20 mM Tris pH 8.0, 100 mM NaCl, 2.5 mM MgCl2, 0.1% CA-630, 10% glycerol, 1 uM ZnSO4, 1 mM DTT, 4 C; settings: protein: recombinant, tags: His6-MBP or GST tag, TEV-cleavable (cleaved when necessary)
# [3] = target: the molecule itself; assay: SEC; analytical gel filtration, Superdex 200 10/300 GL, 5.0 mg mL^−1, no DNA; 20 mM HEPES pH 7.3, 500 mM NaCl, 2 mM β-mercaptoethanol
# [4] = target: T1, REF6 ZnF1-4 WT; assay: MST; Hill coefficient 1.9; MST: 20 mM HEPES pH 7.3, 150 mM NaCl, 0.2 mM TCEP, 0.5% CA-630, 25 C; EMSA: 30 uM protein, 10 uM dsDNA, 20 mM Tris pH 8.0, 100 mM NaCl, 2.5 mM MgCl2, 0.1% CA-630, 10% glycerol, 1 uM ZnSO4, 1 mM DTT, 4 C; settings: protein: recombinant; tags: His6-MBP or GST tag, TEV-cleavable (cleaved when necessary); label: FAM in MST
# [5] = target: T2, REF6 N1276F; assay: MST; MST: 20 mM HEPES pH 7.3, 150 mM NaCl, 0.2 mM TCEP, 0.5% CA-630, 25 C; EMSA: 30 uM protein, 10 uM dsDNA, 20 mM Tris pH 8.0, 100 mM NaCl, 2.5 mM MgCl2, 0.1% CA-630, 10% glycerol, 1 uM ZnSO4, 1 mM DTT, 4 C; settings: protein: recombinant; tags: His6-MBP or GST, TEV-cleavable; label: FAM in MST
binder,measurement,setting,value
B1,binding result,[1],binds
B2,Kd,"[2]; label: FAM, 5' overhang 1 nt on both strands (as m5)",4.5 µM
B3,binding result,[1],binds
B4,binding result,[1],binds
B5,Kd,"[2]; label: FAM in MST, 5' overhang 1 nt on both strands (as m5)",5.9 µM
B6,stoichiometry N,[3],2
B7,binding result,[1]; label: FAM in MST,binds
B8,Kd,[2]; label: FAM in MST,2.6 µM
B9,binding result,[1]; label: FAM in MST,binds
B10,binding result,[1]; label: FAM in MST,binds
B11,binding result,[1],binds
B12,binding result,[1],binds
B13,Kd,[2]; label: FAM in MST,1 µM
B14,stoichiometry N,[3],2
B15,binding signal,[4],5 fold higher affinity than CUC1-3 (13-fold than CUC1-4)
same,binding signal,[5],2.5 fold lower affinity than WT
B16,stoichiometry N,[3],2
